# Experimental data from patent US20150177248.
# T1: acetylated p53 peptide (p53-382/diAc), P04637
# T1 chain: RHKK
# Target: T1, acetylated p53 peptide (p53-382/diAc), …
protein,measurement,value
SIRT7 (sirtuin 7) protein (protein) MAAGGLSRSERKAAERVRRLREEQQRERLRQVSRILRKAAAERSAEEGRLLAESADLVTELQGRSRRREGLKRRQEEVCDDPEELRGKVRELASAVRNAKYLVVYTGAGISTAASIPDYRGPNGVWTLLQKGRSVSAADLSEAEPTLTHMSITRLHEQKLVQHVVSQNCDGLHLRSGLPRTAISELHGNMYIEVCTSCVPNREYVRVFDVTERTALHRHQTGRTCHKCGTQLRDTIVHFGERGTLGQPLNWEAATEAASRADTILCLGSSLKVLKKYPRLWCMTKPPSRRPKLYIVNLQWTPKDDWAALKLHGKCDDVMRLLMAELGLEIPAYSRWQDPIFSLATPLRAGEEGSHSRKSLCRSREEAPPGDRGAPLSSAPILGGWFGRGCTKRTKRKKVT,deacetylation activity,significantly increased
